Experimental data reported in PMC12302338, “Functional genomics and structural insights into maize aldo-keto reductase-4 family: Stress metabolism and substrate specificity in embryos” (The Journal of Biological Chemistry, 2025).

Legend:
Test in all cases: purified protein
Conditions in all cases: 0.25 mM NADPH, 50 mM sodium phosphate pH 7.0, 30 °C, reduction
[1] = substrate: O=Cc1ccc([N+](=O)[O-])cc1; assay type: biochemical, Zea mays
[2] = substrate: CC(=O)C=O; assay type: biochemical, Zea mays
[3] = substrate: O=CC(O)CO

B1: ZmAKR4C13 (Zea mays) (protein)
chain: MASAQAVGQGERGHFVLKSGHTIPAVGLGTWRAGSDTAHSVRTAIAEAGYRHVDTAAQYGVEKEVGRGLKAAMEGGINRKDLFVTSKLWCTELAPDRVRPALEKTLKDLQLDYLDLYLIHWPFRLKDGAHMPPEAGEVLEFDMEGVWREMEGLVKDGLVKDIGVCNYTVAKLNRLMRSANVPPAVCQMEMHPGWKNDRIFEACKKHGIHVTAYSPLGSSEKNLAHDPLVEKVANKLDKTPGQVLLRWALQRGTSVIPKSTRDERIKENIQVFGWEIPEEDFRALCGIKDEKRVLTGEELFVNKTHGPYKSATEVWDHED
notes: monomer
[1]
  Km: 100 ± 20 µM
  kcat: 0.65 s⁻¹
  kcat/Km: 6510 M⁻¹ s⁻¹
[2]
  Km: 940 ± 80 µM
  kcat: 2.21 s⁻¹
  kcat/Km: 2350 M⁻¹ s⁻¹
[3]
  Km: 1460 ± 290 µM
  kcat: 18 s⁻¹
  kcat/Km: 12400 M⁻¹ s⁻¹
